Experimental data taken from patent publication US20110117113A1, “IMMUNOGLOBULIN SINGLE VARIABLE DOMAIN DIRECTED AGAINST HUMAN CXCR4 AND OTHER CELL ASSOCIATED PROTEINS AND METHODS TO GENERATE THEM” (priority 2009, published 2011).
Changes are numbered by the printed parent chain.

How the values were obtained:
Assay in all cases: immunofluorescence on HEK-293T expressing the clone, normalised to wild type
[1] = biological target: T1, CXCR4 mutation library clone 709 (P163L, S178I) (human, UniProt P61073 1-352)
T1 chain: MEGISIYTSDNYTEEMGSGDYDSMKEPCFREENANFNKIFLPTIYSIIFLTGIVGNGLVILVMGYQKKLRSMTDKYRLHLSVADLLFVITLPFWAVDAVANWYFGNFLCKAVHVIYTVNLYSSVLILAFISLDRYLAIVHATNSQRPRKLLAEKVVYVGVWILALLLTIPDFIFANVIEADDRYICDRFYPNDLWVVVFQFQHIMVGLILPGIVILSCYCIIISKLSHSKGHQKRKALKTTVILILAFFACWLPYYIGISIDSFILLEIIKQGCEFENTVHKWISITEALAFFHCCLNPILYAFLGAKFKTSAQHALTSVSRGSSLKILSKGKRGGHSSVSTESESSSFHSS

[2] = biological target: CXCR4 mutation library clone 2184 (P191T) (human, UniProt P61073 1-352)
[3] = biological target: T2, CXCR4 mutation library clone 185 (E277A, I245V, N298S) (human, UniProt P61073 1-352)
T2 chain: T1 chain with L163P, I178S, I245V, E277A, N298S

[4] = biological target: T3, CXCR4 mutation library clone 465 (F189L, S319P, V155E) (human, UniProt P61073 1-352)
T3 chain: T1 chain with V155E, L163P, I178S, F189L, S319P

[5] = biological target: T4, CXCR4 mutation library clone 2834 (E179V, G258E) (human, UniProt P61073 1-352)
T4 chain: T1 chain with L163P, I178S, E179V, G258E

[6] = biological target: T5, CXCR4 mutation library clone 1057 (K230E, S178R) (human, UniProt P61073 1-352)
T5 chain: T1 chain with L163P, I178R, K230E

[7] = biological target: T6, CXCR4 mutation library clone 913 (F189S, K308R) (human, UniProt P61073 1-352)
T6 chain: T1 chain with L163P, I178S, F189S, K308R

[8] = biological target: CXCR4 mutation library clone 1129 (F189V) (human, UniProt P61073 1-352)

B1: Nanobody 238D4 (VHH)
VHH: EVQLMESGGGLVQAGGSLRLSCAASGRTFNNYAMGWFRRAPGKEREFVAAITRSGVRSGVSAIYGDSVKDRFTISRDNAKNTLYLQMNSLKPEDTAVYTCAASAIGSGALRRFEYDYSGQGTQVTVSS
% immunofluorescence [1]: 30%
% immunofluorescence [2]: 124%
% immunofluorescence [3]: 69.3%
% immunofluorescence [4]: 12.2%
% immunofluorescence [5]: 19.5%
% immunofluorescence [6]: 11.4%
% immunofluorescence [7]: -16.9%
% immunofluorescence [8]: 5.2%
